Test results published in patent US8183340B2, “GLP-1 pegylated compounds” (Eli Lilly and Company, priority 2005, dated 2012).
Where no end group is shown, it is not given here. PEG = not defined here

How the values were obtained:
[1] = Pharmacokinetic analysis after IV or SC administration to male SD rats (plasma, N-terminal specific radioimmunoassay); format: in vivo; details: for AUC0-last / CL/F (total body clearance as a function of bioavailability) / Cmax (maximum observed plasma concentration) / Tmax (time of maximum observed plasma concentration) / t1/2 (elimination half-life): mean
Method: A PEGylated GLP-1 compound of Formula I, wherein Xaa8 is Val; Xaa22 is Glu; Xaa33 is Ile; and Xaa46 is Cys-NH2 is administered by intravenous (IV) or subcutaneous (SC) routes at a dose of 0.1 mg/kg to male SD rats. The animals (3 rats per group) are bled at various times between 0 and 192 hours after dosing. Plasma is collected from each sample and analyzed by N-terminal specific radioimmunoassay. Pharmacokinetic parameters are calculated using noncompartmental methods (WinNonlin Pro). By IV administration, the PEGylated GLP-1 analog has an elimination half-life of approximately 1.2 days while by SC administration the PEGylated GLP-1 analog has an elimination half-life of approximately 1.1 days. […] Prolonged elimination half-life, slow clearance and subcutaneous bioavailability (approximately 30%) are observed for the compound. Representative data are shown below in Table 1

[2] = target: T1, human GLP-1 receptor (Homo sapiens, UniProt P43220); experiment: In vitro activity assay, CRE-Luciferase in HEK-293 cells stably expressing the human GLP-1 receptor; format: cell-based; details: 5 hours incubation
T1 construct: expressed in transfected cells
T1 sequence (P43220 24-463): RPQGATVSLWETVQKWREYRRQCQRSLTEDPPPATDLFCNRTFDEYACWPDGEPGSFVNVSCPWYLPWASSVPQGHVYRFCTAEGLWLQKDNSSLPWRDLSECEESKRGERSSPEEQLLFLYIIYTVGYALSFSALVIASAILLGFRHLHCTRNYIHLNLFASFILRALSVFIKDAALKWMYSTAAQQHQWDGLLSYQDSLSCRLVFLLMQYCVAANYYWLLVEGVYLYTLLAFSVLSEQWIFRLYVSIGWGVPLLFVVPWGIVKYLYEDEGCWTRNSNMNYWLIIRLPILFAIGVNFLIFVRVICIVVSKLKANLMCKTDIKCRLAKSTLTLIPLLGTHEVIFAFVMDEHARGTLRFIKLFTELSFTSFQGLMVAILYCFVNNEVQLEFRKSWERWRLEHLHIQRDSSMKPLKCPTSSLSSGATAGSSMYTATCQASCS
Method: “In vitro potency” as used herein, is the measure of the ability of a peptide to activate the GLP-1 receptor in a cell-based assay. In vitro potency is expressed as the “EC50” which is the effective concentration of compound that results in 50% activity in a single dose-response experiment. For the purposes of the present invention, in vitro potency is determined using a […] assay that employs HEK-293 cells that stably express the human GLP-1 receptor. These HEK-293 cells have stably integrated a DNA vector having a cAMP response element (CRE) driving expression of the luciferase gene. The interaction of a GLP-1 compound or a PEGylated GLP-1 compound with the receptor initiates a signal that results in activation of the cAMP response element and subsequent expression of luciferase. The EC50 values for the PEGylated GLP-1 compounds listed in Example 3 were determined using the luciferase assay described above. Relative in vitro potency values may be established by running Val8-GLP-1(7-37)OH or native GLP-1 as a control and assigning the control a reference value of 100%.
HEK-293 cells stably expressing the human GLP-1 receptor, using a CRE-Luciferase system, are seeded at 30,000 cells/well/80 μl low serum DMEM F12 medium into 96 well plates. […] Plates are placed in a Tri-lux luminometer and light output resulting from luciferase expression is calculated.

[3] = test system: Insulin; experiment: Pharmacodynamic analysis: stepped intravenous glucose infusion, insulin levels by immunoassay; format: in vivo, male cynomolgus monkeys; details: for Insulin AUC, AUClast: stepped IV glucose infusion, mean
Method: A PEGylated GLP-1 compound of Formula I, wherein Xaa8 is Val; Xaa22 is Glu; Xaa33 is Ile; and Xaa46 is Cys-NH2 is administered by subcutaneous (SC) route at a dose of 0.01 mg/kg to male cynomolgus monkeys. A stepped intravenous glucose infusion is conducted immediately after SC administration of vehicle control (phosphate buffered saline) and 1, 5, and 7 days after SC administration of 0.01 mg/kg PEGylated GLP-1 analog. Stepped intravenous glucose infusion procedures are conducted in sedated monkeys after a 16-hour fast. Blood samples are drawn at 10 minutes prior to start of glucose infusion and immediately prior to start of glucose infusion to define baseline. A stepped infusion of glucose (20% dextrose) is then initiated at a rate of 10 mg/kg/min for 20 minutes followed by an infusion of 25 mg/kg/min for an additional 20 minutes. Blood samples are taken at 10-minute intervals throughout the infusion period. Insulin levels are determined by immunoassay. […] Representative data are shown below in Table 3.

[4] = Pharmacokinetic analysis after SC administration to male cynomolgus monkeys (serum, N-terminal specific radioimmunoassay); format: in vivo; details: 0.01 mg/kg, mean
Method: A PEGylated GLP-1 compound of Formula I, wherein Xaa8 is Val; Xaa22 is Glu; Xaa33 is Ile; and Xaa46 is Cys-NH2 is administered by subcutaneous (SC) route at a dose of 0.01 mg/kg to male cynomolgus monkeys. The animals are bled at various times between 0 and 168 hours after dosing. Serum is collected from each sample and analyzed by N-terminal specific radioimmunoassay. Pharmacokinetic parameters are calculated using noncompartmental methods (WinNonlin Pro). Representative data are shown below in Table 2.

Substance: PEGylated GLP-1 compound of Formula I, wherein Xaa8 is Val; Xaa22 is Glu; Xaa33 is Ile; and Xaa46 is Cys-NH2: Formula I (SEQ ID NO: 1) peptide, one PEG molecule covalently attached to Cys45 and one to Cys46-NH2 (HVEGTFTSDVSSYLEEQAAKEFIAWLIKGGPSSGAPPPC(PEG)C(PEG)-NH2; reading uncertain)
- adverse clinical observations ([1]; IV or SC administration of 0.1 mg/kg): No adverse clinical observations
- elimination half-life ([1]; IV, 0.1 mg/kg): approximately 1.2 days
- AUC0-last ([1]; IV, 0.1 mg/kg): 52292 ng·h/mL
- CL/F (total body clearance as a function of bioavailability) ([1]; IV, 0.1 mg/kg): 1.9 mL/h/kg
- Cmax (maximum observed plasma concentration) ([1]; IV, 0.1 mg/kg): 2020 ng/mL
- Tmax (time of maximum observed plasma concentration) ([1]; IV, 0.1 mg/kg): 0.08 h
- t1/2 (elimination half-life) ([1]; IV, 0.1 mg/kg): 25.8 h
- elimination half-life ([1]; SC, 0.1 mg/kg): approximately 1.1 days
- subcutaneous bioavailability ([1]; SC, 0.1 mg/kg): approximately 30%
- AUC0-last ([1]; SC, 0.1 mg/kg): 15423 ng·h/mL
- CL/F (total body clearance as a function of bioavailability) ([1]; SC, 0.1 mg/kg): 6.5 mL/h/kg
- Cmax (maximum observed plasma concentration) ([1]; SC, 0.1 mg/kg): 191 ng/mL
- Tmax (time of maximum observed plasma concentration) ([1]; SC, 0.1 mg/kg): 24.0 h
- t1/2 (elimination half-life) ([1]; SC, 0.1 mg/kg): 28.3 h
- EC50 [2]: 0.36 ± 0.04 nM
- Insulin AUC, AUClast ([3]; Day 1 after SC 0.01 mg/kg): 30862 pM·min
- Insulin AUC, AUClast ([3]; Day 5 after SC 0.01 mg/kg): 27203 pM·min
- Insulin AUC, AUClast ([3]; Day 7 after SC 0.01 mg/kg): 28542 pM·min
- duration of insulinotropic activity ([3]; single SC injection of 0.01 mg/kg, relative to placebo, p<0.0001): at least 7 days
- AUC0-last [4]: 7464.78 ng·h/mL
- CL/F (total body clearance as a function of bioavailability) [4]: 1.06 mL/h/kg
- Cmax (maximum observed serum concentration) [4]: 69.49 ng/mL
- Tmax (time of maximum observed serum concentration) [4]: 48 h
- t1/2 (elimination half-life estimate) [4]: 75.69 h

Substance: PEGylated GLP-1 compound of Formula I, wherein Xaa8 is Val; Xaa22 is Glu; Xaa33 is Ile; and Xaa46 is Cys: Formula I (SEQ ID NO: 1) peptide, one PEG molecule covalently attached to Cys45 and one to Cys46 (HVEGTFTSDVSSYLEEQAAKEFIAWLIKGGPSSGAPPPC(PEG)C(PEG); reading uncertain)
- EC50 [2]: 0.22 ± 0.03 nM
